# Test results from US5726243.
# Key:
# [1] = biological target: K1735 M4 tumor cells (melanoma cells); experiment: adhesion of 3H-thymidine-labelled K1735 M4 cells to peptide-coated Immulon plates, 1 h at 37 °C
# [2] = biological target: K1735 M4 tumor cells (melanoma cells); experiment: adhesion of 3H-thymidine-labelled K1735 M4 cells to peptide-coated Immulon plates, 1 h at 37 °C; one mole of SSP counted as three chains
peptide concentration at half maximal melanoma cell adhesion [1] [µM],peptide concentration at half maximal melanoma cell adhesion [2] [µM],Molecule
> 100,–,"THP-3, branched triple-helical polypeptide of (Gly-Pro-Hyp)8"
1.12,–,"THP-2, branched triple-helical polypeptide incorporating residues 1263-1277 from α1(IV) collagen"
–,170,GVKGDKGNPGWPGAP [single-stranded peptide (SSP) incorporating residues 1263-1277 from the α1 chain of type IV collagen]
